This test deals with T1, CD3 (UniProt P07766 23-207).
T1 construct: whole, on cells; on cells it stands in the TCR/CD3 complex; also called CD3 on Jurkat cells
In words: flow cytometry, serial dilution on Jurkat cells (CD3-expressing), PE anti-human Fc detection, n = 1. On the procedure: Trivalent, trispecific antibodies were analyzed for their binding to tumor cell lines with different EGFR- and HER3-expression levels (Table 14) by flow cytometry. Adherent cells were washed with PBS and shortly trypsinized at 37° C. Trypsin was quenched with FCS-containing medium and removed by centrifugation (500×g, 5 min.). 1×10⁵ target cells/well (FaDu, LIM1215, SKBR-3, T-47-D, MCF-7 and Jurkat cells) were incubated with a serial dilution of trivalent, trispecific antibodies for 1 h at 4° C. After removing excess of recombinant protein by washing with PBA (PBS, 2% FBS, and 0.02% sodium azide), bound protein was detected using PE-conjugated anti-human Fc mAb (Jackson ImmunoResearch Laboratories Inc). Fluorescence was measured using MACSquant VYB (Miltenyi Biotec) and data were analyzed using FlowJo (Tree Star). Relative median fluorescence intensities (MFI) were calculated as followed: relative MFI=((MFIₛₐₘₚₗₑ-(MFIdetection-MFIcells))/MFIcells).
Background: A flow cytometer gives signals particle by particle.

Our source for the EC50 values is patent US20220396635A1 (UNIVERSIT T STUTTGART, published 2022).

B1: scDb/scFv-Fc (2-1)+3, trivalent trispecific anti-EGFRxanti-HER3×anti-CD3 (other)
chain 1: QVQLVQSGAEVKKPGSSVKVSCKASGGTFSGYTMNWVRQAPGQGLEWMGLINPYKGVSTYNGKFKDRVTITADKSTSTAYMELSSLRSEDTAVYYCARSGYYGDSDWYFDVWGQGTLVTVSSGGGGSQAGLTQPPAVSVAPGQTASITCGRDNIGSRSVHWYQQKPGQAPVLVVYDDSDRPAGIPERFSGSNYENTATLTISRVEAGDEADYYCQVWGITSDHVVFGGGTKLTVLGGGGSGGGGSGGGGSQVQLQQSGPGLVKPSQTLSLTCAISGDSVSSNRAAWNWIRQSPSRGLEWLGRTYYRSKWYNDYAQSLKSRITINPDTPKNQFSLQLNSVTPEDTAVYYCARDGQLGLDALDIWGQGTMVTVSSGGGGSDIQMTQSPSSLSASVGDRVTITCRASQDIRNYLNWYQQKPGKAPKLLIYYTSRLHSGVPSRFSGSGSGTDFTFTISSLQPEDIATYYCQQGNTLPWTFGQGTKLEIKRAAADKTHTCPPCPAPPVAGPSVFLFPPKPKDTLMISRTPEVTCVVVDVSHEDPEVKFNWYVDGVEVHNAKTKPREEQYNSTYRVVSVLTVLHQDWLNGKEYKCKVSNKGLPSSIEKTISKAKGQPREPQVCTLPPSRDELTKNQVSLSCAVKGFYPSDIAVEWESNGQPENNYKTTPPVLDSDGSFFLVSKLTVDKSRWQQGNVFSCSVMHEALHNHYTQKSLSLSPGK
chain 2: EVQLVESGGGLVQPGGSLRLSCAASGFSLTNYGVHWVRQAPGKGLEWLGVIWSGGNTDYNTPFTSRFTISRDNSKNTLYLQMNSLRAEDTAVYYCARALTYYDYEFAYWGQGTTVTVSSGGGGSGGGGSGGGGSDIQLTQSPSFLSASVGDRVTITCRASQSIGTNIHWYQQKPGKAPKLLIKYASESISGVPSRFSGSGSGTEFTLTISSLQPEDFATYYCQQNNNWPTTFGAGTKLEIKRAAADKTHTCPPCPAPPVAGPSVFLFPPKPKDTLMISRTPEVTCVVVDVSHEDPEVKFNWYVDGVEVHNAKTKPREEQYNSTYRVVSVLTVLHQDWLNGKEYKCKVSNKGLPSSIEKTISKAKGQPREPQVYTLPPCRDELTKNQVSLWCLVKGFYPSDIAVEWESNGQPENNYKTTPPVLDSDGSFFLYSKLTVDKSRWQQGNVFSCSVMHEALHNHYTQKSLSLSPGK
notes: Trispecific antibody: 1 = HER3, 2 = CD3, 3 = EGFR; also called scDbhuU3x3-43-Fc(hole)Δab + scFvhu225-Fc(knob)Δab
B1: the midpoint of the response, the EC50, lay at 2.6 nM.

B2: scDb/Fab-Fc (2-1)+3, trivalent trispecific anti-EGFRxanti-HER3×anti-CD3 (other)
chain: B1 chain 1
heavy: EVQLVESGGGLVQPGGSLRLSCAASGFSLTNYGVHWVRQAPGKGLEWLGVIWSGGNTDYNTPFTSRFTISRDNSKNTLYLQMNSLRAEDTAVYYCARALTYYDYEFAYWGQGTTVTVSSASTKGPSVFPLAPSSKSTSGGTAALGCLVKDYFPEPVTVSWNSGALTSGVHTFPAVLQSSGLYSLSSVVTVPSSSLGTQTYICNVNHKPSNTKVDKKVEPKSCGTDKTHTCPPCPAPPVAGPSVFLFPPKPKDTLMISRTPEVTCVVVDVSHEDPEVKFNWYVDGVEVHNAKTKPREEQYNSTYRVVSVLTVLHQDWLNGKEYKCKVSNKGLPSSIEKTISKAKGQPREPQVYTLPPCRDELTKNQVSLWCLVKGFYPSDIAVEWESNGQPENNYKTTPPVLDSDGSFFLYSKLTVDKSRWQQGNVFSCSVMHEALHNHYTQKSLSLSPGK
light: DIQLTQSPSFLSASVGDRVTITCRASQSIGTNIHWYQQKPGKAPKLLIKYASESISGVPSRFSGSGSGTEFTLTISSLQPEDFATYYCQQNNNWPTTFGAGTKLEIKRTVAAPSVFIFPPSDEQLKSGTASVVCLLNNFYPREAKVQWKVDNALQSGNSQESVTEQDSKDSTYSLSSTLTLSKADYEKHKVYACEVTHQGLSSPVTKSFNRGEC
notes: Trispecific antibody: 1 = HER3, 2 = CD3, 3 = EGFR; also called scDbhuU3x3-43-Fc(hole)Δab + Fdhu225-Fc(knob)Δab + VLhu225-CLκ
For the molecule B2, the EC50 (usually the concentration that produces a half-maximal response) turned out to be 1.1 nM.
